{"source": "patent US20260158160A1", "about": "(MACFARLANE BURNET INSTITUTE FOR MEDICAL RESEARCH AND PUBLIC …, published 2026)", "binders": {"B1": {"name": "CC40.8-H429F (antibody)", "heavy": "not shown", "light": "SYELTQPPSVSVSPGQTARITCSGDALPKRYAYWYQQKSGQAPILVIYEDKKRPSGIPERLSGSKSGTVATLTISGAQVEDEADYYCYSTDSSGNHAVFGGGTQLTVLGQPKAAPSVFIFPPSDEQLKSGTASVVCLLNNFYPREAKVQWKVDNALQSGNSQESVTEQDSKDSTYSLSSTLTLSKADYEKHKVYACEVTHQGLSSPVTKSFNRGEC", "notes": "also called CC40.8-HF"}}, "biological_target": "T1, SARS-CoV-2 spike protein expressed on Ramos-S cells (SARS-CoV-2, UniProt P0DTC2 14-1273)", "T1 construct": "whole, on cells; also called S protein; Ramos cells expressing transfected spike protein", "test": "flow cytometry on Ramos-S cells"}
{"binder": "B1", "values": [{"measurement": "binding result", "result": "binds"}]}
